{"source": "patent US20170100354A1", "target": "H4 tail (residues 1-30) of the acetyl reporter protein (H4ac indicator)", "assay": "cell-based or functional assay"}
{"sequence": "TATA binding protein (TBP)-associated factor II (TAFII) bromodomain of the H4ac indicator", "values": [{"measurement": "% of cells discriminated from auto fluorescence (FACS), H4ac indicator, 1 µM SAHA", "value": 5, "unit": "%"}, {"measurement": "% of cells discriminated from auto fluorescence (FACS), H4ac indicator, 2.5 µM SAHA", "value": 20, "unit": "%"}, {"measurement": "% of cells discriminated from auto fluorescence (FACS), H4ac indicator, 7.5 µM SAHA", "value": 40, "unit": "%"}, {"measurement": "% of cells discriminated from auto fluorescence (FACS), H4ac indicator, 10 µM SAHA", "value": 45, "unit": "%"}]}
